The assay addresses Orphanin FQ receptor, normal (NT), expressed in Cos-7 cells (UniProt P35370). The assay is described as follows: inhibition of [125I] Y14-OFQ17 binding, Cos-7 cells transfected with OFQR.

One may read the IC50 as the concentration that gives 50% inhibition. A high value points to weaker potency.

B1: OFQ11 (peptide)
peptide: FGGFTGARKSA
Consider B1, for which the IC50 turned out to be 5000 nM.

B2: synthetic OFQ17 with R8K (peptide)
peptide: FGGFTGAKKSARKLANQ
B2 displayed a half-maximal inhibitory concentration (IC50) of 0.1 nM.

B3: synthetic OFQ17 with K13C (peptide)
peptide: FGGFTGARKSARCLANQ
The molecule B3 registered an IC50 of 0.1 nM.

Source of the values: US20050169917A1.
